Assay [1] addresses actin filaments (endocytic patches) (Schizosaccharomyces pombe, UniProt P10989). Briefly: live-cell fluorescence titration.
The target of assay [2] is actin filaments (contractile ring) (Schizosaccharomyces pombe, UniProt P10989). Briefly: live-cell fluorescence titration.

The values below come from PMC5509211 (2017).

No end group written: not given here.

In the case of MGVADLIKKFESISKEE (also: mEGFP fusion) [mEGFP-Lifeact], the Kd (usually the equilibrium constant for the complex coming apart) in assay [1] came to 20 µM; in assay [2], 6.2 µM.
